Molecular target: T1, PhoP (non-phosphorylated) (Escherichia coli ExPEC (APEC) FY26 (O2:K1, ST95)?) (UniProt Q8CXZ9)
T1 sequence: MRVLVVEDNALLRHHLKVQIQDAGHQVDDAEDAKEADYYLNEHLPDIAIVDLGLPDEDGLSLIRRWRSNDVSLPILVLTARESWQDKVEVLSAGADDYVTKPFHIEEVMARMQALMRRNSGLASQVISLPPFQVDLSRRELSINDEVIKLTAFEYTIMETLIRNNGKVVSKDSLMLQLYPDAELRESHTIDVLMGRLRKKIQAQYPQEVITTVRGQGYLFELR
Experiment: EMSA

## CAGGACTGAAACGCTTCCTTCATGTTGGTACTGCTATGTCTTGTACACCTCATACGGGGTCGCTAGTTAAGGAAGAGTCTGCTTCATCAGAAACAGGTGAACATTTAGTGGAGTATACGCATTCAAAAGCAACAATAGAATATCTGATGCGTAAGCAGTGTCCTGATTTACCTTTGTTGGTTGCCCGACCATCAATTATT (double strand)
  binding: no binding

— paper PMC5913352
